{
  "source": "paper PMC5817353",
  "about": "“Iron Sulfur and Molybdenum Cofactor Enzymes Regulate the Drosophila Life Cycle by Controlling Cell Metabolism” (Frontiers in Physiology, 2018)",
  "target": "Drosophila Nfs1^Δ1–53/Isd11/IscU complex (Drosophila melanogaster, UniProt Q9VKD3 54-462; O46098 1-92; Q9VHK6 1-154)",
  "sequence (Q9VKD3 54-462, stated change not applied, chain 1 of 3)": "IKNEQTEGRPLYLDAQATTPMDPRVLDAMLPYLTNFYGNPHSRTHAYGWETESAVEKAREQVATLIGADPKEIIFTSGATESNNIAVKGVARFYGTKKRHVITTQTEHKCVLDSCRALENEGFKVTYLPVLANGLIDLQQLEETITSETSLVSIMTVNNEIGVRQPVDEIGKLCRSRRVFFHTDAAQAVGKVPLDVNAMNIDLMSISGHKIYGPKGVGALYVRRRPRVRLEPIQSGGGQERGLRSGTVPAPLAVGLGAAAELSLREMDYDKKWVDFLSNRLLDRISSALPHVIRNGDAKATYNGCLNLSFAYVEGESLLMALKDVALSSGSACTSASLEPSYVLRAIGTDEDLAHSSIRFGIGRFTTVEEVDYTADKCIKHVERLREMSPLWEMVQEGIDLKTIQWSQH",
  "sequence (O46098 whole entry, stated change not applied, chain 2 of 3)": "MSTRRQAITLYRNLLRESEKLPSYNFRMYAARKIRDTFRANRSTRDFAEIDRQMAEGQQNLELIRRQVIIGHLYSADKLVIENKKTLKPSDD",
  "sequence (Q9VHK6 whole entry, stated change not applied, chain 3 of 3)": "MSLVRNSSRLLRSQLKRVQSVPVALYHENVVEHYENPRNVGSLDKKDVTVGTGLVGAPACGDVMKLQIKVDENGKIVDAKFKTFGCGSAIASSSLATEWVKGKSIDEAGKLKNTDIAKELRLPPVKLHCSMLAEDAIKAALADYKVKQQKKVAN",
  "assay": "cell-based or functional assay",
  "data": [
    {"binder": "human frataxin (FXN) (natural protein, UniProt Q16595 42-210, looked up) LRTDIDATCTPRRASSNQRGLNQIWNVKKQSVYLMNLRKSGTLGHPGSLDETTYERLAEETLDSLAEFFEDLADKPYTFEDYDVSFGSGVLTVKLGGDLGTYVINKQTPNKQIWLSSPSSGPKRYDWTGKNWVYSHDGVSLHELLAAELTKALKTKLDLSSLAYSGKDA", "values": [
      {"measurement": "L-cysteine desulfurase activity (total sulfide produced, methylene blue) of the IscU/Nfs1^Δ1–53/Isd11 complex on addition of human frataxin, 1:3 [Nfs1]:[FXN], anaerobic, 10 min at 23°C", "result": 6, "unit": "fold"}
    ]}
  ]
}
